Test results from patent US8911953B2, “TDF-related compounds and analogs thereof, analogs and bioactive fragments” (Thrasos Innovation, Inc., priority 2005, dated 2014).
Where two headings read alike, the source gives them in different places. Positions of bridges follow the written chain, without caps; N, C: chain ends. No end group written: not given here.

Assays:
HK-2 cells = assay: Smad1 phosphorylation and nuclear translocation in HK-2 cells (immunofluorescence); format: cell-based, human; details: 1.3 uM and 33 uM compound
Procedure: Phosphorylation and nuclear translocation of Smads occurs following the activation of Type I and Type II receptors and subsequent signal transduction to intracellular Smad targets. Phosphorylation and nuclear translocation of R-Smad in HK-2, vascular endothelial, human prostate or other cells by TDFRP compounds is assayed by immuno-fluorescent microscopy methods, using anti-phospho Smad 1/5 antibodies according to the procedure of H Aoki, M Fujii, T Imamura, K Yagi, K Takehara, M Kato and K Miyazono. J. of Cell Sci. 114, 1483-1489, 2001) and by Western blot analysis (FIGS. 2, 3, 18, 2X).
For example, HK-2, human proximal tubule cells are incubated in culture medium alone or exposed TDFRP or control compounds for one hour ten minutes at 37 degree C. BMP-7 served as a positive control in the assay. Each well is rinsed with 1 mL prewarmed medium. 1 mL per well of cold Acetone/Methanol mix (1:1) is added and incubated for 2 minutes at room temperature to fix the cells. Wells are washed with 1 mL of cold PBS and blocked with 1 mL blocking buffer (3% BSA, 1% goat serum in PBS) for 7 minutes. Wells are aspirated without disturbing the cells, and 500 uL/well primary antibody is added (anti-phospho-Smad 1) at 0.056 ug/mL concentration in 3% BSA in PBS (no goat serum). Cells are incubated overnight at 4 degrees C. […]

ALK-3 = ALK-3 (Homo sapiens, UniProt P36894); assay: Radioligand receptor binding assay (competition with 125I-labeled TDF-1)
ALK-3, sequence (P36894 24-532, species assumed): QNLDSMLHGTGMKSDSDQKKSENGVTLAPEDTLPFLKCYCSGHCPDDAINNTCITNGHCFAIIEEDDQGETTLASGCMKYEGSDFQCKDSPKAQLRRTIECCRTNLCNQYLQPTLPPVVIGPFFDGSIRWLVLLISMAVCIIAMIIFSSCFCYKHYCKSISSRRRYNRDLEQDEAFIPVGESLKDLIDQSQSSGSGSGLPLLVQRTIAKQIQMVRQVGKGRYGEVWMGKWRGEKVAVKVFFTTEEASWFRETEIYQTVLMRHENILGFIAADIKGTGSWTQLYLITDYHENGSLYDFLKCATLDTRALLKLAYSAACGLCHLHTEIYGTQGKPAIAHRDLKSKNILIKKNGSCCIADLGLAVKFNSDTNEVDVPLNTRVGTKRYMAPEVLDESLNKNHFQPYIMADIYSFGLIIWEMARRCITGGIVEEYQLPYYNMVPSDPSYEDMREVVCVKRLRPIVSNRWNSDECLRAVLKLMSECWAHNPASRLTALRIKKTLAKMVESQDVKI
From the text: Radioligand Receptor Binding Assays for ALK-3, ALK-6 and BMPR-2:
The assays are based on competition between ^125I-labeled TDF-1 (BMP-7 or OP-1 or other BMPs) and candidate TDFRP compounds or unlabeled TDF-1 for binding to respective receptors (ALK-3, ALK-6 or BMPR-2 or other BMP receptors or co-receptors). In brief, the procedure involves immobilization of receptor on 96 well Removawell plates, blocking the wells with 3% BSA in PBS and subsequently washing the wells. Increasing concentrations of unlabeled TDF-1 or TDFRP compounds or control (unlabeled TDF-1) prepared in binding buffer are then added. Incubate plate for 1 hour at room temperature, and then add a fixed amount of ^125I-labeled TDF-1 (250,000 to 350,000 cpm) to the wells and further incubate in cold (4° C.) for 20 hours. Aspirate the contents of the wells and wash the wells four times with a wash buffer, and count the receptor bound ^125I-labeled TDF-1 in an auto gamma counter.
Using this procedure, TDFRP compound binding to select ALK receptors are assessed. Accordingly, TDFRP compounds that preferentially bind select ALK receptors can be identified. For example, TDFRP compounds that preferentially bind to ALK-3 receptor compared with binding to other ALK receptors, e.g., ALK-6 (FIGS. 1, 15).
A. Radioligand Receptor Binding Assays For ALK-3, ALK-6 and BMPR-2: […]

binding to BMP Type I ALK-3 receptor compared to ALK-6 receptor (ALK-3): binds preferentially
binding to BMP Type I ALK-3 receptor compared to ALK-6 receptor (ALK-3; listed as SEQ ID NO 45): selectively binds
Sequence: CYFDDSSNVLCKKYRS (disulfide 1-11 (inferred); not fully specified) [SEQ ID NO:45]
Smad1 phosphorylation, activation and translocation in the nucleus (HK-2 cells): Smad1 phosphorylation, activation and translocation in the nucleus
